Test results reported in publication PMC12724383.

Key:
Details in all cases: 50 mM HEPES, 150 mM NaCl, 10% glycerol (pH not given for the reactions; protein storage buffer pH 7.5), room temperature, 15 min (EMSA) or 40 min …
[1] = test system: T1, DbuR (Pseudomonas putida), ORF:fe707e5d; test: DNase I footprinting
T1 sequence: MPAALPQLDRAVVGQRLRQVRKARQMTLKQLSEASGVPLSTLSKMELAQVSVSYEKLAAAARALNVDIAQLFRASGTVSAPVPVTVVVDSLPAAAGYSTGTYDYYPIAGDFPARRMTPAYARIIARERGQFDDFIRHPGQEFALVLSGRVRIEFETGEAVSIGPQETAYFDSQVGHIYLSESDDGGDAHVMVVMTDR

[2] = test system: T1, DbuR (Pseudomonas putida), ORF:fe707e5d; test: EMSA
[3] = test system: T1, DbuR (Pseudomonas putida), ORF:fe707e5d; test: competition EMSA

Q: “TCAGGGATCTCGGCATGCGGCGGTGGTCGGGCATCTTACCTTGGACCCTTGCGCATTTCTAAATTCTCATATATTAGAATTCTCATAAATGATAATTGCCTGGCAGGAGCGTGCATGACCCCGACCTACGACA (double strand) [Pdbu 133 bp, 5'-FAM/5'-HEX]” was tested. Which binding [1] did it give?
A: binds

Q: With “TCAGGGATCTCGGCATGCGGCGGTGGTCGGGCATCTTACCTTGGACCCTTGCGCATTTCTAAATTCTCATATATTAGAATTCTCATAAATGATAATTGCCTGGCAGGAGCGTGCATGACCCCGACCTACGACA (double strand) [Pdbu 133 bp, 5'-FAM]” as the sequence, how does the binding [2] read?
A: binds

Q: Which binding [3] does the source give for “TCAGGGATCTCGGCATGCGGCGGTGGTCGGGCATCTTACCTTGGACCCTTGCGCATTTCTAAATTCTCATATATTAGAATTCTCATAAATGATAATTGCCTGGCAGGAGCGTGCATGACCCCGACCTACGACA (double strand) [Pdbu 133 bp, unlabeled]” here?
A: binds
